Source: publication PMC2905062

Target: Axl receptor tyrosine kinase, wildtype (human)
Assay: co-IP

How did the fold Grb2 co-IP'ed with Axl, rhGas6 stimulation against no stimulation turn out when “endogenous growth factor receptor-bound protein 2 (Grb2) of COS7 cells (natural protein)” was run?
Its fold Grb2 co-IP'ed with Axl, rhGas6 stimulation against no stimulation is 2 fold.
